According to patent US20030040043A1 (published 2003):

Biological target: T1, GAL4bd-FtsA fusion (E. coli, UniProt P04386 1-147; P0ABH0 1-420)
T1 construct: also called pAS2-1-FtsA; SHp100
Test: yeast two-hybrid, GAL4 system, plates lacking histidine and AT

Binder	binding result
GAL4ad-FtsZ^D373G fusion (pGAD424) (other, also called pGAD424-FtsZ^D373G; SHp201) MFEPMELTNDAVIKVIGVGGGGGNAVEHMVRERIEGVEFFAVNTDAQALRKTAVGQTIQIGSGITKGLGAGANPEVGRNAADEDRDALRAALEGADMVFIAAGMGGGTGTGAAPVVAEVAKDLGILTVAVVTKPFNFEGKKRMAFAEQGITELSKHVDSLITIPNDKLLKVLGRGISLLDAFGAANDVLKGAVQGIAELITRPGLMNVDFADVRTVMSEMGYAMMGSGVASGEDRAEEAAEMAISSPLLEDIDLSGARGVLVNITAGFDLRLDEFETVGNTIRAFASDNATVVIGTSLDPDMNDELRVTVVATGIGMDKRPEITLVTNKQVQQPVMDRYQQHGMAPLTQEQKPVAKVVNDNAPQTAKEPDYLGIPAFLRKQAD	no binding
GAL4ad-FtsZ^D373G,P375L fusion (pGAD424) (other, also called pGAD424-FtsZ^D373G,P375L; SHp203) MFEPMELTNDAVIKVIGVGGGGGNAVEHMVRERIEGVEFFAVNTDAQALRKTAVGQTIQIGSGITKGLGAGANPEVGRNAADEDRDALRAALEGADMVFIAAGMGGGTGTGAAPVVAEVAKDLGILTVAVVTKPFNFEGKKRMAFAEQGITELSKHVDSLITIPNDKLLKVLGRGISLLDAFGAANDVLKGAVQGIAELITRPGLMNVDFADVRTVMSEMGYAMMGSGVASGEDRAEEAAEMAISSPLLEDIDLSGARGVLVNITAGFDLRLDEFETVGNTIRAFASDNATVVIGTSLDPDMNDELRVTVVATGIGMDKRPEITLVTNKQVQQPVMDRYQQHGMAPLTQEQKPVAKVVNDNAPQTAKEPDYLGILAFLRKQAD	no binding
